Assay results published in publication PMC12441119 (2025).

T1: STK4 (residues 11–326) K59R (human, UniProt Q13043 11-326, K59R)
T1 sequence: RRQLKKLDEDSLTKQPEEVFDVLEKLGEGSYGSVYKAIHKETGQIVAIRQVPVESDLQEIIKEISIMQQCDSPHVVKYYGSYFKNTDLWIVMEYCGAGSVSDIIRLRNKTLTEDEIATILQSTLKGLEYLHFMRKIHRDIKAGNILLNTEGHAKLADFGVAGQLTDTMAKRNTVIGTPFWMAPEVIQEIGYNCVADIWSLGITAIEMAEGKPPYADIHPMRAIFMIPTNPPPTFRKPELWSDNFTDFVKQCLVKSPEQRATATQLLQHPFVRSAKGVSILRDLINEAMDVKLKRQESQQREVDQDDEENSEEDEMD

T2: STK4 (residues 1–326) K59R (human, UniProt Q13043 1-326, K59R)
T2 sequence: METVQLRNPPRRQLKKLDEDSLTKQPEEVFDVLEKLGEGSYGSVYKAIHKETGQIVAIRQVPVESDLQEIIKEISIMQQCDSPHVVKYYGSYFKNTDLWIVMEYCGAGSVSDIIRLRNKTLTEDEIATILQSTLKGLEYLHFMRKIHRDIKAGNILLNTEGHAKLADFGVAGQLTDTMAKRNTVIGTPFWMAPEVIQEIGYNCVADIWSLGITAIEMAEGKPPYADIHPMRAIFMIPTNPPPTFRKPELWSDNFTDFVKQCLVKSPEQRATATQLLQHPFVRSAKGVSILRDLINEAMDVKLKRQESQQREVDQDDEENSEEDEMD

T3: STK4 (residues 1–326) K59R N239A (human, UniProt Q13043 1-326, K59R | N239A)
T3 sequence: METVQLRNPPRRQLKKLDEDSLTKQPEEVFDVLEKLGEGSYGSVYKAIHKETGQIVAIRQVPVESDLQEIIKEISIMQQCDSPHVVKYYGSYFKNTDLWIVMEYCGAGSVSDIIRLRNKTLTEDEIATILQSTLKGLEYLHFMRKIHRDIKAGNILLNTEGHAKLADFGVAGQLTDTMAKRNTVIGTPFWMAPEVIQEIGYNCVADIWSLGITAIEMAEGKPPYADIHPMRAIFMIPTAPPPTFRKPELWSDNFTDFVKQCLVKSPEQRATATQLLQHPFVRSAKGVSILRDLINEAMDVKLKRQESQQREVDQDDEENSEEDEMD

B1: HOIP (residues 697–1072) (domain or fragment)
chain: QECAVCGWALPHNRMQALTSCECTICPDCFRQHFTIALKEKHITDMVCPACGRPDLTDDTQLLSYFSTLDIQLRESLEPDAYALFHKKLTEGVLMRDPKFLWCAQCSFGFIYEREQLEATCPQCHQTFCVRCKRQWEEQHRGRSCEDFQNWKRMNDPEYQAQGLAMYLQENGIDCPKCKFSYALARGGCMHFHCTQCRHQFCSGCYNAFYAKNKCPEPNCRVKKSLHGHHPRDCLFYLRDWTALRLQKLLQDNNVMFNTEPPAGARAVPGGGCRVIEQKEVPNGLRDEACGKETPAGYAGLCQAHYKEYLVSLINAHSLDPATLYEVEELETATERYLHVRPQPLAGEDPPAYQARLLQKLTEEVPLGQSIPRRRK
B2: HOIP (residues 854–1072) (domain or fragment)
chain: EYQAQGLAMYLQENGIDCPKCKFSYALARGGCMHFHCTQCRHQFCSGCYNAFYAKNKCPEPNCRVKKSLHGHHPRDCLFYLRDWTALRLQKLLQDNNVMFNTEPPAGARAVPGGGCRVIEQKEVPNGLRDEACGKETPAGYAGLCQAHYKEYLVSLINAHSLDPATLYEVEELETATERYLHVRPQPLAGEDPPAYQARLLQKLTEEVPLGQSIPRRRK

Experiments:
[1] = target: T1, STK4 (residues 11–326) K59R; assay: ITC
[2] = target: T2, STK4 (residues 1–326) K59R; assay: ITC
[3] = target: T3, STK4 (residues 1–326) K59R N239A; assay: ITC; printed as R239A

Binder | Kd [1] [µM] | Kd [2] [µM] | Kd [3] [µM]
B1 | 34.7 | 36.4 | –
B2 | – | – | 149
